Reference: paper PMC7932109 (Science (New York, N.y.), 2021)

biological target: SARS-CoV-2 spike receptor binding domain (RBD), residues 319 to 541 (SARS-CoV-2, UniProt P0DTC2, biotinylated for SPR; DyLight 488 (NHS ester) for the ACE2-RBD binding assay; no label told for ELISA and crystals); assay: SPR; conditions: both partners purified

Binder	Kd
VHH V (VHH, also called nanobody V; source: E. coli WK6, periplasmic extract, purified (Ni-NTA, desalting or gel filtration)) VHH: QVQLVETGGGLVQPGGSLRLSCAASGFTFSSYAMGWARQVPGKGLEWVSYIYSDGSTEYQDSVKGRFTISRDNAKSTVYLQMNSLKPEDTAVYYCATEGSLGGWGRDFGSWGQGTQVTVSS	9 nM
VHH U (VHH, also called nanobody U; source: E. coli WK6, periplasmic extract, purified (Ni-NTA, desalting or gel filtration)) VHH: QVQLVESGGGLVQPGGSLRLSCAASGFTLDYYAIGWFRQAPGKEREGVSCISSSGGSTHFADSVKGRFTISRDNAKNTVYLQMNSLIPEDTAVYYCAAQSGSYYWCGSDWHEYEYWGQGTQVTVSS	21 nM
VHH W (VHH, also called nanobody W; source: E. coli WK6, periplasmic extract, purified (Ni-NTA, desalting or gel filtration)) VHH: QVQLVESGGGLVQPGGSLRLSCAASGFTLDYYAIGWFRQAPGKEREGVSCISSSGDSTHYVDSVKGRFTISRDNAKNTVYLQMNSLKPEDTAVYYCAAQSGSYYWCGSDWHEYDYRGQGTQVTVSS	22 nM
